The source of these data is patent US20260070983A1 (Eli Lilly, published 2026).

The assay deals with human PD-1-ECD-His (human). Briefly: SPR (Biacore), 37 °C. Background: SPR reads the build-up and loss of mass on a sensor chip optically.
human PD-1-ECD-His (human), sequence (chain, as listed by the source): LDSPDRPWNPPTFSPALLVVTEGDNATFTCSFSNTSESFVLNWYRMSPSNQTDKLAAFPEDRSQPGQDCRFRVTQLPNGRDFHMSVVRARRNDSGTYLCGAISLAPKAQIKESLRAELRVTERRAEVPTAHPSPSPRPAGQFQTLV

B1: peresolimab (antibody, V domains shown)
VH: QVQLVQSGAEVKKPGASVKVSCKVSGYSLSKYDMSWVRQAPGKGLEWMGIIYTSGYTDYAQKFQGRVTMTEDTSTDTAYMELSSLRSEDTAVYYCATGNPYYTNGFNSWGQGTLVTVSS
VL: DIQMTQSPSSLSASVGDRVTITCQASQSPNNLLAWYQQKPGKAPKLLIYGASDLPSGVPSRFSGSGSGTDFTLTISSLQPEDFATYYCQNNYYVGPVSYAFGGGTKVEIK
B1 registered a Kd of 2.29 nM, a koff of 0.000701 s⁻¹ and a kon of 307000 M⁻¹ s⁻¹.

As a reminder, the Kd is the constant that tells how readily two partners part at equilibrium. Read a low Kd as a tighter complex. Usually koff stands for the rate constant with which the complex falls apart. The low end stands for slow dissociation, the high end for fast dissociation. As a reminder, the kon is the second-order rate constant of association. Low readings indicate slower complex formation, high ones faster complex formation.
